From the DeepSol protein solubility set

test: soluble on expression in E. coli; label from the status in PepcDB or PDB records

Sequence | soluble on expression in E. coli
MGHHHHHHSHMMQESGTETKSNGSAIQNGSGGSNHLLECGGLREGRSNGETPAVDIGAADLAHAQQQQQQWHLINHQPSRSPSSWLKRLISSPWELEVLQVPLWGAVAETKMSGPVCQPNPSPF | not soluble
MSLCRRRLATWLLDGSQPPTLLLPEQEGINGIRFPIWLDENGKRVAADCPQARQEMINVWPLPLEPWLPASERRAVRLPPASTSCPPYGHDAQLPLQLTGVRDGAIIKRLPGAAEATLPLQSSGGAGERWWFLNGEPLTERGRNVTLHLTDKGDYQLLVMDDVGQIATVKFVMQEGHHHHHH | soluble
MDSEKIKIFTRNYKGSLIMSKRSPKSVSEKLEIVLLRLEEGKSLSWLTRNQGISKDTLSNWVRKYKEAGVDGLEESRQWKKYSKELKEQAVSDYLNGLGSLKDLTKKYGISDPYVLRSWIKSYTSGKELKATSKGMRRMKQGRKTTFEERIEIVNFTLAHEKDYQGAVEKYGVSYQQIYSWVRKFEKDGSNGLLDRRGKGLTSKPNLTPEEELRLKIKQQEERIKYLEMENGLLKKLEEIKRRNRRLEHHHHHH | soluble
MGHHHHHHSHGVSAAVTSMSVPTPIYQTSSGQYIAIAPNGALQLASPGTDGVQGLQTLTMTNSGSTQQGTTILQYAQTSDGQQILVPSNQVVVQTASGDMQTYQIRTTPSATSLPQTVVMTSPVTLTSQTTKTDDPQLKREIRLMKNREAARECRRKKKEYVKCLENRVAVLENQNKTLIEELKTLKDLYSNKS | not soluble
MTTNKPLISVIMPVYNGGFTIRQAVESVFCQNIPLELLVIDDGSTDQTSEVLSVYRNRPDFHYLKNPHNIGAAASRNRGVQEAHGQYVAFLDADDWWENGKLQIQLDTLHETGRVLCSTGRELMNYDGTPTGKYIPVKETVSYRDLLKHNSINCSSVLLLRDVAAEFPMEHDDSHEDYLTWLKILRKYGPAAGIDRPLLKYRMSKTSKSGDKKKSAIMTYKVYRYMGYSHMRCILYFISYAIHGFWKYR | not soluble
STLQFKVGPPFELVRDYCPVVESHTGRTLDLRIIPRIDRGFDHIDEEWVGYKRNYFTLVSTFETANCDLDTFLKSSFDLLVEDSSVESRLRVQYFAIKIKAKNDDDDTEINLVQHTAKRDKGPQFCPSVCPLVPSPLPKHQIIREASNVRNITKTKKYDSTFYLHRNHVNYEEYGVDSLLFSYPEDSIQKVARYERVQFASSISVKKPFQQNKHFSLHVILGAVVDPDTFHGENPGIPYDELALKNGSKGMFVYLQEMKTPPLIIRGRSPSN | soluble
MAHHHHHHMYSTTNDKSENEDLNDVIEININNIANKLANILYITNVGMKENCELKNNLHFSKFLNDMRSYCVNLIQSINNLNSNFYNLTCLPVHSIPRNPYTNILDINVITNNISVDDNADKIKEKQTLLQSFHNKYDKNKTTFHQSIKHIETFNDQLFSALNNLDHIKMSIKYQDQESSTYGNVVSERLKNKQKDHEHLELYIARVHYGLF | not soluble
MMQYMLLFSRQGKLRLQKWYTAYPDKQKKKICRELITQILARKPKMCAFLEYKDLKVVYKRYASLYFCCAIEQNDNELITLEVIHRYVELLDKYFGSVCELDIIFNFEKAYFILDEFLLAGEIQETSKKQVLKAIAAQDLIQEEETPQGFFEDHGLG | not soluble
MGSDKIHHHHHHMNNIIVGMGEALWDVLPEGKKIGGAPANFAYHVSQFGFDSRVVSAVGNDELGDEIMEVFKEKQLKNQIERVDYPTGTVQVTLDDEGVPCYEIKEGVAWDNIPFTDELKRLALNTRAVCFGSLAQRNEVSRATINRFLDTMPDIDGQLKIFDINLRQDFYTKEVLRESFKRCNILKINDEELVTISRMFGYPGIDLQDKCWILLAKYNLKMLILTCGINGSYVFTPGVVSFQETPKVPVADTVGAGDSFTAAFCASILNGKSVPEAHKLAVEVSAYVCTQSGAMPELPVILKDRLL | not soluble
MPNFFKFHTVIERHWQKPYPVLSFLLKPLSGLFAKIAAKWRADFLSGKRQSEKLSVPVVVVGNIHAGGTGKTPIAAALVSGLQEKGVKVGIISRGYGRKSKAVYVLNAASRAEDAGDEPLLLFRKTGAPTAVGSSRVEAGRALLAAHPELELIVADDGLQHYALQRDVEIAVFPAADTGRTDLDLLPNGNLREPLSRLESVDAVVVGGRAADGFMPSEHLFGSRIEAGAVYRLNRPSEKLDISTLSGKRVAAVAGIARPQRFFDTLTHMGIRLDQTVALPDHADIFNRDLPPADVVLVTEKDAVKFSDGICTDNVWVLPVCAIIEPDLAEFVLERLEGVPKAVLEHHHHHH | not soluble
MKKERVDVLAFNQGLFETREKAKRSVMAGLVYNDKNERLDKPGEKISVETPLHTKGQVMPYVSRGGLKLEKALNVFAINVQGKTMLDIGSSTGGFTDVALQNGARLSYALDVGYNQLAWKIRQDERVVVMERTNFRYSKPEDFTEGVPDIATIDVSFISLRLILPPLHDILKKGGSVVALIKPQFEAGKEFVGKKGIVRDPETHQMVVEEITRFAMNNGYDVKNLDFSPITGGEGNIEFLAHLVSVEGEGSYQAPESIEEVVAHAHQKLAE | not soluble
MDVEVKNKANRRHVGHNLQKIRVYFGMKQEALAADLGVNQQVISKIEKQEEIEEGLLNQIASVLGISAEVIKDFDVEKAIYNINNIRDNTFEQGATSIAQQFNPLDKIVELYERLLQSEREKIELLKKR | not soluble
MGSDKIHHHHHHMMTQVPDTPQALYRALPSMDSLLADAVLAPLLQRYGKAAVKAALDSQLRTARELIAQERRLPAWCANPSLLNGYLVDQLSKDYSHSLKPVWNLTGTILHTNLGRAQQSEAAIRAVTSVMRYPTPLEFELAAGERGHRDNAISGLIQRLTGAEACCVVNNNAAAVLLMLSAVAAGKEVIVSRGELVEIGGAFRIPDIMRQAGCTLVEVGSTNRTHLKDYEQAITENTAAIMKVHTSNYHISGFTAAVEEARLGQLCRERGILLISDLGSGSLTDLRRFGLKQEPTPQAMLADGVDLVSFSGDKLLGGPQSGLIVGKQALINKLQSHPLKRALRCDKLILAALEATLIHYLNPETLDKELPIMAKFARSQAELRQIGERLQQALAPLFTPSYGLELVECQTQVGSGSQPDTFLPSIGLCFNAQEGGSLTLLEQHFKQAQRPVIGRMTQDQLRLDLRGIDDEAELLAELSTLGVQL | not soluble
MGSDKIHHHHHHMRADIIKVNHLLEIEMENNIGKEYLPSRLEEISDEHWHISMPMRKGMYITMRVGQKIRIVLRYRNTMFAATTVIAARRRGHIPVLIVSKPKDLIAINQKRTYVRISVAIPVAFRLLLADGEKGELLQGVTGDISAGGMLLLSPQDMEKDQKIEVEIKLPDSDSIFCQAHVVRVLGKASEEGSNNKYAIEYDDINEGQRDRIFRFIFDKQREWLRKGVTE | not soluble
MSLMTDDIDQRLINALMADSRLSLKALAQVSGLSAPSVAERLRKLEERGVIRGYTLDVDPRCFGYQFQAIVRIRPLPGRLHEVERQIQDIAEFTECDKVTGDDCFIARLQVRSMEQLDTLLDRINGYAETNTAIVKKSPVKRRLPPMT | soluble
GMNLANIVQRGWEALGAGDFDTLVTDYVEKMIFIMPGQADVLKGRQAFRSALDNLGEILPPGFEITGLRQLEGENEIVSIVEWKSDKMIASQLSVLFKFEGDQIYEERWFVDTEQWKSVF | soluble
MTAHLAAINGLRLKAECSNCGVRELCLSVGMSLTDTDRLSAIIPQPIKVKKGAALYHAGDPLQSLYAVRFGFFKTTISSQDGRDQLTGFQMSGELLGCDAISNDCHVCDAIALEDSEVCPIRFTHLERLSREMPSLQHNLNRALSKEIVRDHEMLLLLGNLNAEERMAAFLLNLSGRMFNRGYSATAFVLRMTREDIGSYLGLRLETICRAIANLRNLRIVSISGRQVEILDLNRLQALIHGCSYRAKSL | not soluble
AGHMVSCCYRSLAAPDLTLRDLLDIVETSQAHNARAQLTGALFYSQGVFFQWLEGRPAAVAEVMTHIQRDRRHSNVEILAEEPIAKRRFAGWHMQLSCSEADMRSLGLAESRQIVTVGRSL | soluble
MPNTADQVDPLLASLSHFVDHTDLLAEHTMNAVEWEAVEVLMPRILRGKSKEDVKQLLLAEIDGMSKKRLDAVLAGETLEESSSSEDEEEQVIGSAGESEKSESPEIPEPEAKMEEQAVEAAEASEASDDGREDGEIRDDQGNTTSTPPDPGSPKSPEKGEAEQLDTDEEIDRLLEEDLEDFL | soluble
MSLDTENVKYRSITTKIELDDLIESLKKAKYISIDTETSSLDTYTAKLIGISISFKEFEGYYIPIEAKGKIYIEKNYIIQKFNNLFESNPKIIGQNYKFDYKILKNNGFNPIPPYFDTMIAAYLIDTNSKVSLDFLAEKYLMHKNIKYEDVIQKNDNFANISLEMATSYSSEDADITFRLFNIFTKKLKEDKLDKLMHEIEMPFNKVIIEMEENGIYLDKEYLKEYGKELGKELEAIENEIIKSIGIDFNLNSPKQMHEILFEKLNLKLPEKMKKDSTDIKVLESLREQHESIENLIKYRQIAKLKSTYTDNLIELINYKTNRLHTSFIQTKTATGRITSINPNLQNIPIKDEKGRKIRKAFKPENGNIFISADYSQIELAILAHLSQDEVLIKAFENNKDIHTETASKLFKIEEKEITPNLRRIAKSINFGIIYRMSDFRLAKELGITKEEAKGFINSYFDSYPKIKEFIINQINFVRNAGYSETILKRRRYIKEINSNNYLERSAAERIAINSIIQGSAADIMKIAMVKVFNEFKSKKMESKILLQVHDEMLIESPIEEENEVKKILKIMMETAYTLNLPLRANIETGKSWGEIHEGHHHHHH | soluble
MGHHHHHHSHFRNCILGLAVGDALGMPVEGLSIENIRQLYGEVRDFLPSPYGDLNAGEWTDDTEQMVVLAESILETVYFDPENFAERLKRWFLETNSRRIGPSSTKAISNLMRGVHWTRAGVFSDTCGAAMRVAPIGLVYHFSLNLVERYAEISARVTHTGTAAIGGAVAVAVAIACNVLDFSDEEMLEEVLRRVEAYDNLLAEKIRYANEISDRDVEYAVEKLGNSISSLDVVPMAFYSYFAGKDFEESLIKAVNAGGDADSIAAICGAIKGAKGFAIPERWLEGLKDREFLEELATK | not soluble
MSLVSYVEVIKNGETISSCFQPFQKNENYGTITSANEQITPVIFHNLIMDMVLPKVVPIKGNKVTKMSMNLIDGFDCFYSTDDHDPKTVYVCFTLVDMPKILPIRILSGLQEYESNATNELLSSHVGQILDSFHEELVEYRNQTLNSSGNGQSSNGNGQNTISDIGDATEDQIKDVIQIMNDNIDKFLERQERVSLLVDKTSQLNSSSNKFRRKAVNIKEIMWWQKVKNITLLTFTIILEGHHHHHH | soluble
MTAEVTAADAEVLLAQPRGFCAGVDRAIDIVERALELHGAPIYVRHEIVHNRYVVEDLRGKGAVFIDELDQAPAGAIVVFSAHGVSQAVRGEAEARGLRVFDATCPLVTKVHIEVARMRAAGREIVMIGHKGHPEVEGTLGQAQGGMYLVETVEDVAALQVSDPGNLAYVTQTTLSVDDAAAVAGALKARFPGIVEPKKSDICYATQNRQDAVKLLAPECDLVLVVGSTNSSNSNRLREVAERKGVAAYLIDGAHAIDPAWLQGRRSIGITAGASAPEVLVQQVVERVRELGAVSVRTMPGLEESVAFPLPKGLSRKIAQTESLEAAALEHHHHHH | not soluble
MAVNVYSTSVTSDNLSRHDMLAWINESLQLNLTKIEQLCSGAAYCQFMDMLFPGSIALKKVKFQAKLEHEYIQNFKILQAGFKRMGVDKIIPVDKLVKGKFQDNFEFVQWFKKFFDANYDGKDYDPVAARQGQETAVAPSLVAPALNKPKKPLTSSSAAPQRPISTQRTAAAPKAGPGVVRKNPGVGNGDDEAAELMQQVNVLKLTVEDLEKERDFYFGKLRNIELICQENEGENDPVLQRIVDILYATDEGFVIPDEGGPQEEQEEY | soluble
AHHHHHHGSNSKEFRKIALVGASKNPAKYGNIILKDLLSKGFEVLPVNPNYDEIEGLKCYRSVRELPKDVDVIVFVVPPKVGLQVAKEAVEAGFKKLWFQPGAESEEIRRFLEKAGVEYSFGRCIMVETSNKKIFLEV | soluble
